Where no end group is shown, it is not given here. [ ]: non-standard residue; d: D form. pT = C[C@@H](OP(=O)(O)O)[C@H](N)C(=O)O
Tests used:
[1] = target: T1, human PLK1-PBD (371-594) (human, UniProt P53350 371-594); experiment: fluorescence polarization, FITC peptide 10 nM, PBD 0 to 4 µM
T1 construct: range 371-594; Made in E. coli as a GST fusion (pGEX6p-1); also called PBD of PLK1; purified PBD

[2] = target: T2, human PLK3-PBD (412-646) (human, UniProt Q9H4B4 412-646); experiment: fluorescence polarization, FITC peptide 10 nM
T2 construct: range 412-646; GST fusion from pGEX6p-1, GST cleaved by 3C protease
T2 sequence (looked up): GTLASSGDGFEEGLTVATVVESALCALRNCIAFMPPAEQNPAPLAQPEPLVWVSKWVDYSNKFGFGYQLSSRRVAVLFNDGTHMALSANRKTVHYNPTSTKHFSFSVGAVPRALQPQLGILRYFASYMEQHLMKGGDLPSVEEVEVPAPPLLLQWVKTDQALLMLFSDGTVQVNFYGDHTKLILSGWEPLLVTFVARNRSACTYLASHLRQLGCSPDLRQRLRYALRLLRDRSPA
Method: (§1) The final protein concentrations ranged from 0 to 4 uM, and the final peptide concentration was 10 nM. Fluorescence polarization was analyzed 30 min after mixing the peptide and proteins in a 96-well plate using an INFINTE 200 PRO (Tecan). Binding curves were fitted using the GraphPad Prism software.

[3] = target: T3, human PLK2-PBD (451-685) (human, UniProt Q9NYY3 451-685); experiment: fluorescence polarization, FITC peptide 10 nM
T3 construct: range 451-685; GST fusion from pGEX6p-1, GST cleaved by 3C protease
T3 sequence (looked up): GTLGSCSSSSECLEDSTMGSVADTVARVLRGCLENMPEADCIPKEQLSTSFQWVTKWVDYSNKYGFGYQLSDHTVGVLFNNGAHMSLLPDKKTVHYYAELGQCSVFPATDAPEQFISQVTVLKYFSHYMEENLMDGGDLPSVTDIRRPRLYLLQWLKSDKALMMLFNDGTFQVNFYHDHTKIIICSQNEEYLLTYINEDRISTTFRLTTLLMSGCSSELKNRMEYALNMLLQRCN
Method: as §1

[4] = target: T1, human PLK1-PBD (371-594); experiment: fluorescence polarization, FITC peptide 10 nM
Method: as §1

[5] = target: T4, NCAPG2 (detected by immunoblotting in Flag-PLK1 immunoprecipitates) (human, UniProt Q86XI2 1-1143, limits assumed); experiment: Flag-bead pull-down, NCAPG2 immunoblot
T4 construct: Apparently the cells' own NCAPG2
T4 sequence: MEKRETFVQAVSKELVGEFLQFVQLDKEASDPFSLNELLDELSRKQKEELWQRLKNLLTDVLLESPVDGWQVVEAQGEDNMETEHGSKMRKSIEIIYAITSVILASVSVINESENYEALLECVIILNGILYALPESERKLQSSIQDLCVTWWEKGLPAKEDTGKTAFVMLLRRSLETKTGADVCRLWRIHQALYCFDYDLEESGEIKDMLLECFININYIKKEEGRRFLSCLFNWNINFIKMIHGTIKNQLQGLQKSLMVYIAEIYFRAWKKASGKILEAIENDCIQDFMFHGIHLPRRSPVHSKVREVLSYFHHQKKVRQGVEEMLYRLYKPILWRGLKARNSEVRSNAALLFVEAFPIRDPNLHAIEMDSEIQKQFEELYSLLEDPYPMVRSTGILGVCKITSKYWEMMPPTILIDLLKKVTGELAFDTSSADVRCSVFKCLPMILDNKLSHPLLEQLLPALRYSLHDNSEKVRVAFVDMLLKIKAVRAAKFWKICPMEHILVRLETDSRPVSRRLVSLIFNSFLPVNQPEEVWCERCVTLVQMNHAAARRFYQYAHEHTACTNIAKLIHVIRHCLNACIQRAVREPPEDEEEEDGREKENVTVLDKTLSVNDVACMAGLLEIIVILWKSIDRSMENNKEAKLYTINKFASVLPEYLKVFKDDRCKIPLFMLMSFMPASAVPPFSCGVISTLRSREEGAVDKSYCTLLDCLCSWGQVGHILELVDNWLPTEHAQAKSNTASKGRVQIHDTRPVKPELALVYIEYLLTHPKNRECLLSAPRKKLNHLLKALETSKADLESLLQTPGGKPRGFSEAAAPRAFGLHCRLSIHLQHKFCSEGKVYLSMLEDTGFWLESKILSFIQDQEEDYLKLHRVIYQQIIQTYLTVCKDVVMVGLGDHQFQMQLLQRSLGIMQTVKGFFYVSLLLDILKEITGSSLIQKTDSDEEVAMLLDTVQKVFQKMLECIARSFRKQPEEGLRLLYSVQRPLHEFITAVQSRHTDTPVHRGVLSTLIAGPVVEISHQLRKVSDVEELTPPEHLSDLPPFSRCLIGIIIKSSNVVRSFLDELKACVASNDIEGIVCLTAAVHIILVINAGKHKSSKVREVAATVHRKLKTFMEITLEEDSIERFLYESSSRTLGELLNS
Method: The primary antibodies were purchased from commercial sources as follows: Histon H3 pS10 (Abcam, Cambridge, UK), NCAPG2 (Novus Biological, 1/1000), PLK1 (Novus Biological, 1/1000), BubR1 (BD Biosciences, 1/1000), β-actin (Sigma-Aldrich, 1/5000), and CREST (ImmunoVision, 1/1000). BubR1 676 antibodies (1/10000) were prepared as previously reported (Elowe, S., et al. Tension-sensitive Plk1 phosphorylation on BubR1 regulates the stability of kinetochore microtubule interactions. Genes Dev 21, 2205-19 (2007)). The precipitates were washed with TAP buffer three times at 4° C., re-suspended in 20 μl of 2X Sample buffer (125 mM Tris (pH 6.8), 200 mM DTT, 4% SDS, 20% Glycerol, 0.004% Bromophenol Blue) and proteins were denatured at 100° C. for 5 min.
For the detection of proteins using the immunoblottings, subjects were protein complexes from immunoprecipitation or whole cell lysates harvested from indicated conditions. Whole cells were harvested with lysis buffer (20 mM Tris, 5 mM EDTA, 10 mM Na₄P₂O₇, 100 mM NaF, 2 mM Na₃VO₄, 1% Np-40, 0.2% Protease Inhibitor Cocktail, and 1 mM PMSF) and centrifuged at 10,000 rpm, 4° C., 10 min. Protein concentration was determined using BCA™ protein assay kit (Pierce, Rockford, USA). […]

T1 sequence (P53350 371-594 limits assumed): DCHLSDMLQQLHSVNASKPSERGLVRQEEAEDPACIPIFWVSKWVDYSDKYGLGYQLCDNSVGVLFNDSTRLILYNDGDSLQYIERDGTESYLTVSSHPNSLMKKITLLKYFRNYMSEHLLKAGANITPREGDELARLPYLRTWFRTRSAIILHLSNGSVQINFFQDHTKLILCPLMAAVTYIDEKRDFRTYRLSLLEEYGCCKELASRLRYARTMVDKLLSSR

FITC-labelled 1010pT peptide (GVLSpTLI)
Kd [1]: 69.9 nM

B1: FITC-labelled 1010pT peptide (GVLSpTLI) (peptide)
peptide: GVLS[pT]LI
modifications: also: FITC label, site not given here
notes: this peptide carries pThr at the fifth position; also called phosphorylated 7-mer peptide 1006GVLS-pT-LI1012
binding result [2]: no binding (tested: protein 0 to 4 uM)
binding result [3]: no binding (tested: protein 0 to 4 uM)

B2: FITC-labeled 1010D peptide (GVLSDLI) (peptide)
peptide: GVLSDLI
modifications: also: FITC label, site not given here
binding result [4]: no binding (tested: protein 0 to 4 uM)

B3: FITC-labeled 1010E peptide (GVLSELI) (peptide)
peptide: GVLSELI
modifications: also: FITC label, site not given here
binding result [4]: no binding (tested: protein 0 to 4 uM)

B4: Flag-Plk1^FAA (other, UniProt P53350 1-603, looked up)
chain: MSAAVTAGKLARAPADPGKAGVPGVAAPGAPAAAPPAKEIPEVLVDPRSRRRYVRGRFLGKGGFAKCFEISDADTKEVFAGKIVPKSLLLKPHQREKMSMEISIHRSLAHQHVVGFHGFFEDNDFVFVVLELCRRRSLLELHKRRKALTEPEARYYLRQIVLGCQYLHRNRVIHRDLKLGNLFLNEDLEVKIGDFGLATKVEYDGERKKTLCGTPNYIAPEVLSKKGHSFEVDVWSIGCIMYTLLVGKPPFETSCLKETYLRIKKNEYSIPKHINPVAASLIQKMLQTDPTARPTINELLNDEFFTSGYIPARLPITCLTIPPRFSIAPSSLDPSNRKPLTVLNKGLENPLPERPREKEEPVVRETGEVVDCHLSDMLQQLHSVNASKPSERGLVRQEEAEDPACIPIFWVSKFVDYSDKYGLGYQLCDNSVGVLFNDSTRLILYNDGDSLQYIERDGTESYLTVSSHPNSLMKKITLLKYFRNYMSEHLLKAGANITPREGDELARLPYLRTWFRTRSAIILHLSNGSVQINFFQDATALILCPLMAAVTYIDEKRDFRTYRLSLLEEYGCCKELASRLRYARTMVDKLLSSRSASNRLKAS
notes: also called FAA mutant; substrate non recognizable FAA mutant; not shown: Flag tag
binding result [5]: no binding
